Measurements from US20230365685A1 (SUZHOU NEOLOGICS BIOSCIENCE, published 2023).
Changes are numbered by the printed parent chain.

T1: cynomolgus TIM-3 (cynomolgus, UniProt A0A2K5U3G7 22-294)
T1 construct: whole, on cells
T1 sequence: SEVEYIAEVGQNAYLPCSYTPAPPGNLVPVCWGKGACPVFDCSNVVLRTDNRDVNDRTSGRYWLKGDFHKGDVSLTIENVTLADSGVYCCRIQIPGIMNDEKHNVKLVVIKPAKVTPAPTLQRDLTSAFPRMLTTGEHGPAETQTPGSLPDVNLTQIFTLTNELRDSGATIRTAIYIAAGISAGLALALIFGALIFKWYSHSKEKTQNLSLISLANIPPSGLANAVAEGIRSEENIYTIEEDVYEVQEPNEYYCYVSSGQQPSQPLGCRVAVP

B1: 50H9 (antibody, V domains shown)
VH: EVQLVESGGDLVKPGGSLKLSCAASGFTFSTNGMSWVRQIPDKRLEWVATISSGGSNTYYPDSVKGRFTISRDNAKNTLYLQMSSLKSEDTAMYYCARRSELGPFAYWGQGTLVTVSA
VL: DVQMIQSPSSLSASLGDIVTMTCQASQGSSVNLNWFQQKPGKSPKLLIHGSNILEDGVPSRFSGSRYGTDFTLTISSLENEDMATYFCLQHSYLPYTFGGGTKLEIK
B2: 40F11 (antibody, V domains shown)
VH: QIQLVQSGPELKKPGETVRISCKASGYTFRTAEMQWVQKMPGRGLKWIGWINTRSGVPKYAEDFKGRFALSLETSATTAYLQISNLKNEDTATYFCTRGTYAMDYWGQGTSVTVSS
VL: ENVLTQSPAIMSASPGEKVTMTCRASSIVSSSYLHWYQQKSGASPKLWIYSTSNLPSGVPARFSGSGSGTFYSLTVSSVESEDAATYYCQQYSGYPYTFGGGTKLEIK
B3: 3E6 VH4/3E6 VL0 (antibody, V domains shown)
VH: QVQLQESGPGLVKPSQTLSLTCTVSGYSITSGFAWNWIRQPPGNGLEWIGYISHSGSTSYNPSLKSRITISVDTSKNQFSLKLSSVTAADTAVYYCARGYRSPWFAYWGQGTTVTVSS
VL: DIQMTQSPSSLSASVGDRVTITCKASQNVGANVAWYQQKPGKAPKSLIYSASYRYSGVPSRFSGSGSGTDFTLTISSLQPEDFATYYCQQYNSYPTFGGGTKVEIK
notes: Humanized 3E6; VH and VL cloned into vectors with constant regions (CH1-FC/CL) and expressed in 293F cells; also called humanized 3E6 VH4/VL0
B4: 3E6 VH5/3E6 VL0 (antibody, V domains shown)
VH: B3 VH with V72R
VL: B3 VL
notes: Humanized 3E6; VH and VL cloned into vectors with constant regions (CH1-FC/CL) and expressed in 293F cells; also called humanized 3E6 VH5/VL0
B5: 3E6 VH3/3E6 VL0 (antibody, V domains shown)
VH: B3 VH with I68V
VL: B3 VL
notes: Humanized 3E6; VH and VL cloned into vectors with constant regions (CH1-FC/CL) and expressed in 293F cells; also called humanized 3E6 VH3/VL0
B6: 3E6 VH1/3E6 VL0 (antibody, V domains shown)
VH: B3 VH with P41F, I49M, I68V
VL: B3 VL
notes: Humanized 3E6; VH and VL cloned into vectors with constant regions (CH1-FC/CL) and expressed in 293F cells; also called humanized 3E6 VH1/VL0
B7: 3E6 VH6/3E6 VL0 (antibody, V domains shown)
VH: B3 VH with N44K, I49M
VL: B3 VL
notes: Humanized 3E6; VH and VL cloned into vectors with constant regions (CH1-FC/CL) and expressed in 293F cells; also called humanized 3E6 VH6/VL0
B8: 3E6 VH7/3E6 VL0 (antibody, V domains shown)
VH: B3 VH with N44K, I49M, V72R
VL: B3 VL
notes: Humanized 3E6; VH and VL cloned into vectors with constant regions (CH1-FC/CL) and expressed in 293F cells; also called humanized 3E6 VH7/VL0
B9: 3E6 VH2/3E6 VL0 (antibody, V domains shown)
VH: B3 VH with N44K, I49M, I68V
VL: B3 VL
notes: Humanized 3E6; VH and VL cloned into vectors with constant regions (CH1-FC/CL) and expressed in 293F cells; also called humanized 3E6 VH2/VL0
B10: CH 11# (antibody, V domains shown)
VH: QVKLQQSGPDLVKPGASVKISCKASGYSFTGYYMHWVKQSHGKSLEWIGRVNPNNGGTTYKQKFKGKVILTVDKSSSTAYMELRSLTSEDSAVYYCAREGEYFDYYTMDYWGQGTTVTVSS
VL: DIELTQSPASLAVSLGQRATISCRASESVEYYGTSLMQWYQQKPGQPPKLLIYAASNVESGVPARFSGSVSGTDFSLNIHPVEEDDIAVYFCQQSRKVPITFGSGTKLELK
B11: 3E6 (antibody, V domains shown)
VH: DVQLQEAGPGLVKPSQSLSLNCTVTGYSITSGFAWNWIRQFPGNKLEWMGYISHSGSTSYNPSLKSRISITRDTSKNQFFLQLNSVTTEDTATYYCARGYRSPWFAYWGQGTLVTVSA
VL: DIIMTQSQKFMSTSVGDRVSVTCKASQNVGANVAWYQQKPRQSPKALIYSASYRYSGVPDRFTGSGSGTDFTLTISNVQSEDLAEYFCQQYNSYPTFGGGTKLEIK
B12: 19D11 (antibody, V domains shown)
VH: B11 VH with A7S, G10D, N21T, F33Y, A34S, N36H, S53Y, H54F, S59N, P103A
VL: DIVMTQSQKFMSTSVGDRVSVTCKASQNVGTNVAWYQQKPGQSPKTLIYSASYRYSGVPDRFTGSGSGTDFTLTISNVQSEDLAEYFCQQYNSYPLVTFGTGTKLELK
B13: 18C6 (antibody, V domains shown)
VH: QVQLQQPGAEIVMPGASVKMSCKASGYKFTDFLMHWVKQRPGQGLEWIGAIDTSDSYASYNQKFKGKATLTLDESSSTAYMQLSSLTSEDSAVYYCSREAMDYWGQGTSVTVSS
VL: DVVMTQTPLSLPVSLGDQASISCRSSQSLVHSNGNTYLHWFLQKPGQSPKLLIYKVSNRFSGVPDRFSGSGSGTDFTLKISRVEAEDLGVYFCCQSTHVPPLTFGAGTKLELK
B14: 4H2 (antibody, V domains shown)
VH: EVQLQESGPSLVKPSQTLSLTCSVTGDSITSGYWNWIRKFPGNKLEYMGYINYSGSTYYNPSLKSRISITRDTSKNQYYLQLNSVTTEDTATYYCATGNHFDYWGQGTTLTVSS
VL: DIQMTQSPSSLSASLGGKVTITCKASQDINKYIAWYQHKPGKGPRLLIHYTSTLQPGIPSRFSGSGSGTDYSFSISNLEPEDFATYYCLQYDNLLFTFGSGTKLEIK
B15: CH 10# (antibody, V domains shown)
VH: QVQLQQSGAELMKPGASVKISCKAIGYTFSSYWIEWVKQRPGHGLEWIGEISPGRGSTNYNEKFKGKATFTADTSSNTAYMQLSSLTSEDSAVYYCARDYYGSIFDVWGQGTTVTVSS
VL: DIELTQSPALMAASPGEKVTITCSASSSVSSSYLHWYQQKPGSSPKLWIYSTSNLASGVPARFSGSGSGTSYSLTISSMEAEDAATYYCQQWSSYPLTFGAGTKLEIK

Tests used:
[1] = molecular target: T2, human TIM-3 recombinant protein (TIM-3-his) (human, UniProt Q8TDQ0 22-202); assay: biosensor (HFC sensor, Probe Life): antibody captured, TIM-3-his in solution, 1:1 fit;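 also: antigen applied as a twofold dilution series, association and dissociation phases recorded, KD obtained as koff divided by kon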
T2 construct: also called TIM-3 protein; not shown: His tag

human TIM-3 [2] = molecular target: T3, human TIM-3 (human, UniProt Q8TDQ0 22-202, limits assumed); assay: BLI (Octet-96); antigen not named in the paragraph
T3 construct: also called HAVCR2; target antigen

biotinylated human TIM-3 [3] = molecular target: T4, biotinylated human TIM-3 (human, UniProt Q8TDQ0 22-202, limits assumed, biotinylated (sites not given)); assay: competition ELISA: antibody coated, biotinylated human TIM-3 preincubated with competitor CH 11#
biotinylated human TIM-3 [4] = molecular target: T4, biotinylated human TIM-3; assay: competition ELISA: antibody coated, biotinylated human TIM-3 preincubated with competitor 19D11
Description: (§1) Antibodies were diluted with PBS to 2 μg/mL. 50 μl antibody solution was added to each well of the 96-well plate, which was incubated at 4° C. overnight. The plate was then washed with wash buffer (0.05% Tween in PBS) three times and blocked with 5% skim milk in PBS at 37° C. for two hours. The biotinylated human TIM-3 and antibodies were preincubated at room temperature for half an hour and then added to the plate. The plate was then incubated at room temperature for 1 hour and washed three times with wash buffer. 50 μl streptavidin HRP (1:1000, BD) was then added to each well at room temperature and incubated for about 1 hour. 50 μl of TMB substrate was added to each well, and the reaction was then terminated with 50 μl HCL after 1-5 minutes. Absorbance was read at 450 nm and IC50 value was analyzed.

biotinylated human TIM-3 [5] = molecular target: T4, biotinylated human TIM-3; assay: competition ELISA: antibody coated, biotinylated human TIM-3 preincubated with competitor CH 10#
Description: as §1

biotinylated human TIM-3 [6] = molecular target: T4, biotinylated human TIM-3; assay: competition ELISA: antibody coated, biotinylated human TIM-3 preincubated with competitor MBG453
Description: as §1

biotinylated human TIM-3 [7] = molecular target: T4, biotinylated human TIM-3; assay: competition ELISA: antibody coated, biotinylated human TIM-3 preincubated with competitor TSR022
Description: as §1

mouse TIM-3 = molecular target: T5, mouse TIM-3 (mouse, UniProt Q8VIM0 20-281); assay: flow cytometry on cells stably expressing mouse TIM-3, PE-labelled secondary antibody; concentration not shown
T5 construct: whole, on cells

biotinylated human TIM-3 [8] = molecular target: T4, biotinylated human TIM-3; assay: competition ELISA: antibody coated, biotinylated human TIM-3 preincubated with competitor 3E6
Description: as §1

biotinylated human TIM-3 [9] = molecular target: T4, biotinylated human TIM-3; assay: competition ELISA: antibody coated, biotinylated human TIM-3 preincubated with competitor 16H1
Description: as §1

biotinylated human TIM-3 [10] = molecular target: T4, biotinylated human TIM-3; assay: competition ELISA: antibody coated, biotinylated human TIM-3 preincubated with competitor 4H2
Description: as §1

human TIM-3 [11] = molecular target: T3, human TIM-3; assay: blocking assay, flow cytometry: antibody preincubated with recombinant human TIM-3-Fc, then binding of TIM-3-Fc to apoptotic 293T cells; blocked ligand: phosphatidylserine
Description: After the cells were washed once, PE-labelled goat anti-mouse IgG antibody was added and incubated for 1 hour at 4° C. Finally, samples were washed once with 1× Annexin-V buffer and fluorescence was measured with a flow cytometer (Canto II, BD, USA).

cynomolgus TIM-3 = molecular target: T1, cynomolgus TIM-3; assay: flow cytometry on 293T cells stably expressing cynomolgus TIM-3, serially diluted antibody, PE-labelled secondary antibody [upper panel]
Description: Briefly, serially diluted anti-TIM-3 antibodies were incubated with cell lines stably expressing mouse TIM-3 or cynomolgus TIM-3 (10⁵ cells/well). Then, PE-labelled mouse anti-human IgG antibody (Biolegend) was used as detection antibody. A flow cytometer (Canto II, BD, USA) was used to measure fluorescence.
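For inhibit percentage in this document: plate-coated antibody at 2 µg/mL.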

| Kd [1] [nM] | koff [1] [s⁻¹] | kon [1] [M⁻¹ s⁻¹] | Kd (human TIM-3 [2]) [nM] | inhibit percentage (biotinylated human TIM-3 [3]) [%] | inhibit percentage (biotinylated human TIM-3 [4]) [%] | inhibit percentage (biotinylated human TIM-3 [5]) [%] | inhibit percentage (biotinylated human TIM-3 [6]) [%] | inhibit percentage (biotinylated human TIM-3 [7]) [%] | binding result (mouse TIM-3) | inhibit percentage (biotinylated human TIM-3 [8]) [%] | inhibit percentage (biotinylated human TIM-3 [9]) [%] | inhibit percentage (biotinylated human TIM-3 [10]) [%] | IC50 (read off the curve) (human TIM-3 [11]) [µg/mL] | EC50 (read off the curve) (cynomolgus TIM-3) [µg/mL] | Binder |
| --- | --- | --- | --- | --- | --- | --- | --- | --- | --- | --- | --- | --- | --- | --- | --- |
| 6 | 0.00903 | 1.51e+06 | – | – | – | – | – | – | – | – | – | – | – | – | B1 |
| 2.21 | 0.0019 | 857000 | – | – | – | – | – | – | – | – | – | – | – | – | B2 |
| – | – | – | 1.87 | – | – | – | – | – | – | – | – | – | – | – | B3 |
| – | – | – | 1.78 | – | – | – | – | – | – | – | – | – | – | – | B4 |
| – | – | – | 1.98 | – | – | – | – | – | – | – | – | – | – | – | B5 |
| – | – | – | 467 | – | – | – | – | – | – | – | – | – | – | – | B6 |
| – | – | – | 1.46 | – | – | – | – | – | – | – | – | – | – | – | B7 |
| – | – | – | 1.96 | – | – | – | – | – | – | – | – | – | – | – | B8 |
| – | – | – | 2.21 | – | – | – | – | – | – | – | – | – | – | – | B9 |
| 19.1 | 0.000705 | 36900 | – | 100 | 99.4 | 98.2 | 29.4 | 0 | no binding | 97.8 | 0 | 99.6 | – | – | B10 |
| 0.23 | 0.000284 | 1.24e+06 | – | 67.1 | 38.7 | 50.1 | 24.9 | 16.4 | no binding | 100 | 26.3 | 99.6 | ~4 | ~0.1 | B11 |
| 0.604 | 0.00037 | 613000 | – | 100 | 100 | 100 | 0 | 10.3 | no binding | 100 | 0 | 100 | ~7 | – | B12 |
| 0.207 | 0.00012 | 580000 | – | – | – | – | – | – | no binding | – | – | – | – | – | B13 |
| 0.424 | 0.000558 | 1.32e+06 | – | 62.5 | 39 | 56.8 | 28 | 16.7 | no binding | 99.9 | 28.9 | 100 | ~4 | ~0.07 | B14 |
| 38.2 | 0.00148 | 38600 | – | 99.7 | 98.1 | 100 | 35.4 | 48.5 | no binding | 98.2 | 45.8 | 98.6 | ~4 | – | B15 |
